In PMC8247850, “The Peculiar Case of the Hyper‐thermostable Pyrimidine Nucleoside Phosphorylase from Thermus thermophilus” (Chembiochem, 2021):

Key:
[1] = molecular target: T1, TtPyNP (Thermus thermophilus pyrimidine nucleoside phosphorylase) (Thermus thermophilus, UniProt Q5SHF9); conditions: co-substrate uridine
T1 construct: gene TTHA1771
T1 sequence (Q5SHF9 1-423): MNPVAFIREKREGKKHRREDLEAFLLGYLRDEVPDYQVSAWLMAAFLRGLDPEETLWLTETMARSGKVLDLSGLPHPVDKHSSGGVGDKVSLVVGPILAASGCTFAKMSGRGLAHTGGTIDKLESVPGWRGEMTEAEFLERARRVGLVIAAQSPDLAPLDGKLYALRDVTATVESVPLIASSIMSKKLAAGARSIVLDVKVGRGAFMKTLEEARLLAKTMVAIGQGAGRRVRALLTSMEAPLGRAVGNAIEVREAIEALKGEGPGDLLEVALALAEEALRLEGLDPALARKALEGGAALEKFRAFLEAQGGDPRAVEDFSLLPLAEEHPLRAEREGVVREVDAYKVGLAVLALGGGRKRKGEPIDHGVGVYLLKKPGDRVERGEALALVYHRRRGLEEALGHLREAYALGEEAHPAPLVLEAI

[2] = substrate: O=c1ccn([C@@H]2O[C@H](CO)[C@@H](O)[C@H]2O)c(=O)[nH]1; assay: UV spectral unmixing of phosphorolysis initial rates; type: biochemical, Thermus thermophilus; conditions: 80 °C, pH 7, saturating phosphate, Michaelis-Menten-like only up to 1-2 mM, inhibition at higher concentration

`O=P(O)(O)O` [phosphate] was tested, and the “K M” value [1] was “saturating phosphate concentrations for which typical Michaelis–Menten behavior was observed; Figure S4”.

B1: TtPyNP (Thermus thermophilus pyrimidine nucleoside phosphorylase) (Thermus thermophilus HB8) (protein)
chain: MNPVAFIREKREGKKHRREDLEAFLLGYLRDEVPDYQVSAWLMAAFLRGLDPEETLWLTETMARSGKVLDLSGLPHPVDKHSSGGVGDKVSLVVGPILAASGCTFAKMSGRGLAHTGGTIDKLESVPGWRGEMTEAEFLERARRVGLVIAAQSPDLAPLDGKLYALRDVTATVESVPLIASSIMSKKLAAGARSIVLDVKVGRGAFMKTLEEARLLAKTMVAIGQGAGRRVRALLTSMEAPLGRAVGNAIEVREAIEALKGEGPGDLLEVALALAEEALRLEGLDPALARKALEGGAALEKFRAFLEAQGGDPRAVEDFSLLPLAEEHPLRAEREGVVREVDAYKVGLAVLALGGGRKRKGEPIDHGVGVYLLKKPGDRVERGEALALVYHRRRGLEEALGHLREAYALGEEAHPAPLVLEAI
notes: tag not described in the main text
B1 gave a Km [2] of 5.92 ± 8.72 mM and a kcat [2] of 624.89 ± 823.49 s⁻¹.
